Results: the supplement of paper PMC6755084

B1: F1*; the commonest letter at each place (parent)
chain: GAGACCGCAACTGAAAAGTTGTTATCACTTGTCGTAAGACACTTTGGATGGGTTGAAGTTCTGCACGTAGAAGCAAAAGGC

Variants of: B1
Assay: fraction ligated after 30 min (ligated reads / total reads); higher = more ligase activity
Conditions: with F1*sub RNA substrate (template-directed ligation), 42 °C
How it was run: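 Ribozyme variants were transcribed with T7 from PCR-amplified oligo-pool templates and gel-purified. Ligated and unligated bands, separated on gel, were reverse transcribed with barcoded primers and sequenced on a MiSeq, with core bases filtered at quality ≥20. Fraction ligated per variant was computed as ligated reads divided by total reads.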

Compared with G38C G50A, T30C A56T is higher in fraction ligated: 0.101 for the first, 0.749 for the second.

Compared with T32A G38A, T23G A56T is lower in fraction ligated: 0.861 for the first, 0.772 for the second.

Going from G38A A39T to A24G T29A, the fraction ligated falls from 0.829 to 0.807.

Going from T23A A36T to T23G T49A, the fraction ligated falls from 0.838 to 0.766.

First: A36T T45A
Second: T43G G46C
The fraction ligated of the first is lower: 0.778 for the first, 0.783 for the second.

First: C26A A57G
Second: T23C A48C
The fraction ligated of the first is higher: 0.804 for the first, 0.697 for the second.

Compared with T23C G46C, T29G A56C is higher in fraction ligated: 0.738 for the first, 0.787 for the second.

Compared with A48C G55C, G34T T49A is higher in fraction ligated: 0.16 for the first, 0.756 for the second.

First: A39T A48C
Second: C33G C42T
The fraction ligated of the first is lower: 0.633 for the first, 0.833 for the second.

Going from T30C T32C A39G A41G to T32G A48G, the fraction ligated falls from 0.816 to 0.75.

First: G38C T45G
Second: C26A T43A
The fraction ligated of the first is lower: 0.0325 for the first, 0.809 for the second.

Compared with T23A T35G, T23G G55T is higher in fraction ligated: 0.817 for the first, 0.826 for the second.

Compared with G38C A39G, T43C A48T is lower in fraction ligated: 0.811 for the first, 0.668 for the second.

Compared with C33G G38A, T23A G34T is lower in fraction ligated: 0.847 for the first, 0.812 for the second.

Compared with C28G, C28T G38A is higher in fraction ligated: 0.797 for the first, 0.811 for the second.

Going from C28A G47T to C33A G47T, the fraction ligated falls from 0.361 to 0.219.

Going from A24T G47C to C40G G55T, the fraction ligated rises from 0.0331 to 0.794.

First: T43A A48T
Second: T29A G55C
The fraction ligated of the first is lower: 0.774 for the first, 0.79 for the second.

Compared with G55C A56C, A27T T29G is higher in fraction ligated: 0.218 for the first, 0.805 for the second.

Going from A27G A41C to T45G G47A, the fraction ligated falls from 0.789 to 0.781.

Compared with A27C T35C, C28G G34T is lower in fraction ligated: 0.813 for the first, 0.798 for the second.

Compared with C28G G34A, G31A T49G is lower in fraction ligated: 0.794 for the first, 0.229 for the second.

First: A37G G47T
Second: G31T A41C
The fraction ligated of the first is lower: 0.397 for the first, 0.586 for the second.

First: A27C T49A
Second: G38C T43G
The fraction ligated of the first is lower: 0.701 for the first, 0.812 for the second.

Going from T32C T43C to A27T A57T, the fraction ligated rises from 0.782 to 0.804.

First: T25A G38T
Second: T35G G50C
The fraction ligated of the first is lower: 0.375 for the first, 0.486 for the second.

First: C33T C42T
Second: T29C A41G
The fraction ligated of the first is higher: 0.86 for the first, 0.766 for the second.

Going from C26T A41T to A41C T43A, the fraction ligated falls from 0.796 to 0.781.

Going from T25C T44G to A24T A36T, the fraction ligated rises from 0.0249 to 0.794.

Compared with T25C A57G, C42G A48G is higher in fraction ligated: 0.711 for the first, 0.821 for the second.

First: T25C T35A
Second: C33G G46C
The fraction ligated of the first is higher: 0.781 for the first, 0.779 for the second.

First: A27C A36C
Second: T32A C33G
The fraction ligated of the first is lower: 0.793 for the first, 0.823 for the second.

First: T25G G34C
Second: T45A T49C
The fraction ligated of the first is higher: 0.737 for the first, 0.0557 for the second.

Going from T32G C40A to C28T A56T, the fraction ligated falls from 0.825 to 0.731.

Compared with C26G T35A, T30G T49A is lower in fraction ligated: 0.79 for the first, 0.739 for the second.

First: C28A T32A
Second: G34T G50T
The fraction ligated of the first is higher: 0.836 for the first, 0.767 for the second.

First: T23A T32C
Second: T25A C33A
The fraction ligated of the first is higher: 0.771 for the first, 0.189 for the second.

First: T30A A57G
Second: C28T T29C
The fraction ligated of the first is higher: 0.837 for the first, 0.789 for the second.

Compared with T32C, A27G C28A is higher in fraction ligated: 0.803 for the first, 0.805 for the second.

Going from A36G T43C to T32A G55T, the fraction ligated rises from 0.81 to 0.826.

Compared with C33T A36T, T23G T43A is lower in fraction ligated: 0.88 for the first, 0.811 for the second.

First: T44A G50A
Second: T23C A39C
The fraction ligated of the first is lower: 0.643 for the first, 0.788 for the second.

First: T29A T32A
Second: T53G
The fraction ligated of the first is higher: 0.869 for the first, 0.831 for the second.

Going from T35A G47C to A36T G46A, the fraction ligated rises from 0.221 to 0.818.

Going from A24C A57G to T35C A39T, the fraction ligated rises from 0.633 to 0.825.

Going from G34A T44G to A24C T49G, the fraction ligated falls from 0.844 to 0.806.

Going from T25A C40T to A24T G38A, the fraction ligated falls from 0.647 to 0.205.

First: G50A
Second: T29C G46A
The fraction ligated of the first is lower: 0.589 for the first, 0.804 for the second.

Going from A41C G50T to T30G T35C, the fraction ligated rises from 0.597 to 0.813.

Going from G46T A48G to G46T A48C, the fraction ligated falls from 0.352 to 0.127.

Going from A41G C42G to C33G A56G, the fraction ligated falls from 0.803 to 0.793.

Going from A37G A39T to T30C T49A, the fraction ligated falls from 0.796 to 0.575.

First: G31C A41G
Second: G55T A56G
The fraction ligated of the first is lower: 0.779 for the first, 0.806 for the second.

Going from G34A A56G to T30G G50T, the fraction ligated falls from 0.775 to 0.712.

Compared with G31T T49C, G55C A57G is higher in fraction ligated: 0.0332 for the first, 0.773 for the second.

First: T29C T49C
Second: T30G A48T
The fraction ligated of the first is lower: 0.104 for the first, 0.796 for the second.

Compared with T35G A57C, G46T A57C is lower in fraction ligated: 0.805 for the first, 0.726 for the second.

First: T35C T49A
Second: A48T
The fraction ligated of the first is lower: 0.756 for the first, 0.768 for the second.

Compared with A36C C42T, A24T A39G is lower in fraction ligated: 0.889 for the first, 0.793 for the second.

First: T49A G50A
Second: T49A G50T
The fraction ligated of the first is lower: 0.281 for the first, 0.769 for the second.

Compared with T30A G38A, T29A A56G is lower in fraction ligated: 0.813 for the first, 0.789 for the second.

First: A24C G34A
Second: A24C A48G
The fraction ligated of the first is higher: 0.727 for the first, 0.614 for the second.

First: A41C C42G
Second: A36C A41G
The fraction ligated of the first is higher: 0.826 for the first, 0.741 for the second.

First: T29G G47T
Second: G31T G47T
The fraction ligated of the first is higher: 0.738 for the first, 0.022 for the second.

First: T30C T43G
Second: T44A G55T
The fraction ligated of the first is lower: 0.768 for the first, 0.829 for the second.

Going from T49C G50C to C26A T29A, the fraction ligated rises from 0.455 to 0.786.

Compared with G38C A56C, T35C C42A is higher in fraction ligated: 0.209 for the first, 0.841 for the second.

Compared with A24T G50A, A41C G46A is higher in fraction ligated: 0.265 for the first, 0.764 for the second.

Compared with C26A T30A, A39C A57C is higher in fraction ligated: 0.791 for the first, 0.827 for the second.

Compared with G34T A56G, T23G G46T is lower in fraction ligated: 0.785 for the first, 0.759 for the second.

First: C26A G55C
Second: A36T G47C
The fraction ligated of the first is lower: 0.0379 for the first, 0.233 for the second.

Going from T49C A57T to C33A T45C, the fraction ligated rises from 0.3 to 0.53.

Going from A36C G38C to G34T G47T, the fraction ligated falls from 0.838 to 0.363.

First: T30A A41T
Second: C26A G46A
The fraction ligated of the first is higher: 0.859 for the first, 0.73 for the second.

Compared with A27G G34C, T30A T49A is lower in fraction ligated: 0.804 for the first, 0.694 for the second.

Compared with A36C T49G, A24C G47C is lower in fraction ligated: 0.798 for the first, 0.00476 for the second.

Compared with A48G A56T, C28G T49G is higher in fraction ligated: 0.357 for the first, 0.763 for the second.

First: T35G A48C
Second: G31C A36G
The fraction ligated of the first is higher: 0.755 for the first, 0.682 for the second.

Compared with G38A A48C, T30A G34A is higher in fraction ligated: 0.766 for the first, 0.833 for the second.

Compared with G31A C40T, T29A A37C is higher in fraction ligated: 0.831 for the first, 0.849 for the second.

Compared with T23G G34A, C40T A56T is lower in fraction ligated: 0.802 for the first, 0.799 for the second.

Compared with A36T T44G, T44G T45G is lower in fraction ligated: 0.847 for the first, 0.35 for the second.

Going from A24G T32C to G38A C42T, the fraction ligated rises from 0.369 to 0.87.

Work on C42A G46C yielded a fraction ligated of 0.811.
